Measurements published in publication PMC12669751, “Immunodominant antibodies against hemagglutinin in ferrets following infection with 2018 to 2019 influenza vaccine strains” (NPJ Vaccines, 2025).

Target: TX/50 cell-version rHA1 (A/Texas/50/2012(H3N2) HA1) (Influenza A virus …, UniProt R4L1D1, strain)
Experiment: BLI
Conditions: one partner purified

B1: monoclonal antibody FluA-20 (antibody, V domains shown)
VH: QVQLEESGPGLVKPSETLSLTCSVSGVSVTSDIYYWTWIRQPPGKGLEWIGYIFYNGDTNYNPSLKSRVTMSIDTSKNEFSLRLTSVTAADTAVYFCARGTEDLGYCSSGSCPNHWGQGTLVTVSS
VL: DIVMTQSPSSLSASIGDRVTITCRPSQNIRSFLNWFQHKPGKAPKLLIYAASNLQSGVPSRFSGSGSGTEFTLTIRSLQPEDFATYYCQQSYNTPPTFGQGTKVEIK
notes: also called FluA-20 mAb; pan-H3 anti-HA1 mAb; copies: 2 + 2
- binding result: binds
